{"source": "paper PMC5089960", "about": "(Angewandte Chemie (International ed. in English), 2016)", "proteins": {"B1": {"name": "PsoE (enzyme, A. fumigatus)", "chain": "MVFGTLYTFPGDQCRTIAIKAVAKANGLDLDIRETPRTPDHLSISKLGKVPAFQGADSFKLFECMAIALYITSQNEQTTLLGKDKKEYAEIIKWMSFFNTEIVILMTQQLLPQLGVIPYDRDQVEFFANMTQRSVDVVEEYLQDRTFLVGDQLSLADLFCAGNISLGFQFFYGKAWRQQNPNVSRWYEMVCHQPIYAAVTDKFQLLDEPKLTNNPPEKKPETVPKNGAAVAIEATQA"}}, "target": "the molecule itself", "test": "crystal structure", "data": [{"protein": "B1", "values": [{"measurement": "stoichiometry N", "result": 2}]}]}
